Target: T1, DHX36 (UniProt Q9H2U1 1-1008)
T1 sequence: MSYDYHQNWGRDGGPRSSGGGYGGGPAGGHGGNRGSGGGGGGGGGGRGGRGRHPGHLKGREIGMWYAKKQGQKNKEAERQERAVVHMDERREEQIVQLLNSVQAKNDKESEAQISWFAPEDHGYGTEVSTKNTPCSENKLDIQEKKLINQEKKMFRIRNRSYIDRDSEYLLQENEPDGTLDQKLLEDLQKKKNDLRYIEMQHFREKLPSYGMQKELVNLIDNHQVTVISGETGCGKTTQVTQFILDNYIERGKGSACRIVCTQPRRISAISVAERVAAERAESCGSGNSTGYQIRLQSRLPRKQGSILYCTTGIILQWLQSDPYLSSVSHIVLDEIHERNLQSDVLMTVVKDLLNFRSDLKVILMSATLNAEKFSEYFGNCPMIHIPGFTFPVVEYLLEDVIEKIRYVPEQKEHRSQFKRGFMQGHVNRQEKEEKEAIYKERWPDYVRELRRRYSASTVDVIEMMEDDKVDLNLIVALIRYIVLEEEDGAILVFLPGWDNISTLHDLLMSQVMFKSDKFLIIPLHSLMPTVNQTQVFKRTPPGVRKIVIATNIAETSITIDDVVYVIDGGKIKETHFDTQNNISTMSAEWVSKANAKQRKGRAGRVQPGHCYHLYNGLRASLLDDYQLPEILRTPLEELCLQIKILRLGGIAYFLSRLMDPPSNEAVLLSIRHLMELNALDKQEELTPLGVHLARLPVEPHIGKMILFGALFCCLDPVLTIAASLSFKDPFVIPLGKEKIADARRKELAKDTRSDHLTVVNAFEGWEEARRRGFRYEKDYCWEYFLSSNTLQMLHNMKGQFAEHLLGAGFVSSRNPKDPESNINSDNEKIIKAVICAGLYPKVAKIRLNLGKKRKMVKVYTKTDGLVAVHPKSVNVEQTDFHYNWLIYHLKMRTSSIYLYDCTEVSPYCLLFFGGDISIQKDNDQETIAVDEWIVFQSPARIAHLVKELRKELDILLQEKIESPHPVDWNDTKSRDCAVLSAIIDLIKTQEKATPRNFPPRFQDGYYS
Test: EMSA; EMSA: 150 mM KCl, 1 mM MgCl2, 25 mM Tris-HCl pH 7.5, 8% sucrose, 30 min at 37 C; gel at 4 C. Pull-down: same buffer without sucrose, 4 C
Details: protein: commercial; label: 5' HEX; intramolecular rG4 with 3' single-stranded flank

GGGGCGGGUGGGGAGGGGUGCUCUGCUGGUCUUCAAUU (structured_RNA) [HEX_APP rG4 wt region] showed a Kd of 51.3 ± 10.1 nM.

From paper PMC11662670, “Selective recognition of RNA G-quadruplex in vitro and in cells by L-aptamer–D-oligonucleotide conjugate”
